Test system: Escherichia coli TOP10
Experiment: shrunken log2 fold change of peptide-encoding DNA abundance (4.5 h post-induction vs induction); higher = less antimicrobial activity (less host growth inhibition)
Conditions: time post-induction: 4.5 h; library: site-saturation at positions 5, 18, 19, 20
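Note: peptides expressed intracellularly from a pBAD plasmid library in pooled LB shake-flask culture, induced with 0.3% L-arabinose, DNA abundance read by NGS, three biological replicates, DESeq2 with apeglm shrinkage.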

| Sequence | shrunken log2 fold change |
| --- | --- |
| RRIRARPPRLPRPRPRPWMFPRP | -0.0244 |
| RRIRARPPRLPRPRPRPTYWPRP | 0.144 |
| RRIRKRPPRLPRPRPRPPEKPRP | 0.00179 |
| RRIRQRPPRLPRPRPRPFRKPRP | -0.101 |
| RRIRFRPPRLPRPRPRPGDGPRP | 0.264 |
| RRIRVRPPRLPRPRPRPPHVPRP | 0.283 |
| RRIRNRPPRLPRPRPRPCKYPRP | -1.14 |
| RRIRFRPPRLPRPRPRPKSGPRP | 0.0565 |
| RRIRCRPPRLPRPRPRPHSFPRP | -0.404 |
| RRIRFRPPRLPRPRPRPGDMPRP | -0.311 |
| RRIRTRPPRLPRPRPRPAELPRP | 0.112 |
| RRIRQRPPRLPRPRPRPLSHPRP | -0.168 |
| RRIRYRPPRLPRPRPRPMIFPRP | -1.43 |
| RRIRGRPPRLPRPRPRPAQWPRP | 0.933 |
| RRIRSRPPRLPRPRPRPQCVPRP | -0.204 |
| RRIRVRPPRLPRPRPRPDIRPRP | -0.179 |
| RRIRKRPPRLPRPRPRPGKSPRP | 0.0157 |
| RRIRHRPPRLPRPRPRPKPCPRP | -0.139 |
| RRIRARPPRLPRPRPRPDLFPRP | 1.09 |
| RRIRLRPPRLPRPRPRPYIFPRP | -0.549 |
| RRIRQRPPRLPRPRPRPNDTPRP | -0.752 |
| RRIRSRPPRLPRPRPRPIFWPRP | 0.403 |
| RRIRYRPPRLPRPRPRPLPHPRP | -0.375 |
| RRIRIRPPRLPRPRPRPVVEPRP | -0.0638 |
| RRIRVRPPRLPRPRPRPEGWPRP | 0.762 |

| Sequence | shrunken log2 fold change |
| --- | --- |
| RRIRNRPPRLPRPRPRPCNCPRP | -0.00865 |
| RRIRIRPPRLPRPRPRPQDLPRP | -0.527 |
| RRIRFRPPRLPRPRPRPGKAPRP | 0.0429 |
| RRIRQRPPRLPRPRPRPFEKPRP | -0.0519 |
| RRIRERPPRLPRPRPRPFDLPRP | -0.504 |
| RRIRERPPRLPRPRPRPYKRPRP | -0.905 |
| RRIRKRPPRLPRPRPRPRIYPRP | -0.0634 |
| RRIRERPPRLPRPRPRPHLMPRP | 1.19 |
| RRIRPRPPRLPRPRPRPHRFPRP | 0.645 |
| RRIRVRPPRLPRPRPRPFSRPRP | -0.0787 |
| RRIRMRPPRLPRPRPRPLHGPRP | 0.108 |
| RRIRPRPPRLPRPRPRPDHVPRP | -0.474 |
| RRIRPRPPRLPRPRPRPCWTPRP | -0.397 |
| RRIRPRPPRLPRPRPRPVHMPRP | 0.215 |
| RRIRYRPPRLPRPRPRPLNKPRP | -0.449 |
| RRIRLRPPRLPRPRPRPLWKPRP | -0.0337 |
| RRIRSRPPRLPRPRPRPMTFPRP | -0.202 |
| RRIRHRPPRLPRPRPRPKEEPRP | -0.0523 |
| RRIRFRPPRLPRPRPRPLDPPRP | 0.0688 |
| RRIRRRPPRLPRPRPRPCDQPRP | 0.0305 |
| RRIRSRPPRLPRPRPRPHPIPRP | -0.214 |
| RRIRYRPPRLPRPRPRPHCNPRP | -0.366 |
| RRIRNRPPRLPRPRPRPWRQPRP | -0.0337 |
| RRIRPRPPRLPRPRPRPTSDPRP | 0.0712 |
| RRIRLRPPRLPRPRPRPYAYPRP | -0.0124 |

| Sequence | shrunken log2 fold change |
| --- | --- |
| RRIRIRPPRLPRPRPRPKLDPRP | -0.106 |
| RRIRCRPPRLPRPRPRPPPDPRP | 1.26 |
| RRIRRRPPRLPRPRPRPLTAPRP | 0.337 |
| RRIRARPPRLPRPRPRPCDWPRP | 0.353 |
| RRIRIRPPRLPRPRPRPENGPRP | -0.219 |
| RRIRARPPRLPRPRPRPPNQPRP | 0.691 |
| RRIRCRPPRLPRPRPRPWPIPRP | -0.369 |
| RRIRFRPPRLPRPRPRPFVVPRP | -0.219 |
| RRIRVRPPRLPRPRPRPIMRPRP | 0.0562 |
| RRIRDRPPRLPRPRPRPWLEPRP | 0.098 |
| RRIRDRPPRLPRPRPRPEKQPRP | 0.0247 |
| RRIRNRPPRLPRPRPRPWQFPRP | -0.0175 |
| RRIRCRPPRLPRPRPRPEPHPRP | 0.489 |
| RRIRFRPPRLPRPRPRPYDSPRP | -0.924 |
| RRIRLRPPRLPRPRPRPPVFPRP | 0.0392 |
| RRIRQRPPRLPRPRPRPRMKPRP | -0.249 |
| RRIRVRPPRLPRPRPRPYRMPRP | -0.467 |
| RRIRHRPPRLPRPRPRPFHEPRP | -0.2 |
| RRIRSRPPRLPRPRPRPFDDPRP | -0.0842 |
| RRIRERPPRLPRPRPRPNKEPRP | -0.0147 |
| RRIRDRPPRLPRPRPRPPGWPRP | 1.66 |
| RRIRPRPPRLPRPRPRPRYMPRP | -0.213 |
| RRIRRRPPRLPRPRPRPMDGPRP | 0.0167 |
| RRIRMRPPRLPRPRPRPMIKPRP | -0.262 |
| RRIRPRPPRLPRPRPRPRSQPRP | 0.263 |

| Sequence | shrunken log2 fold change |
| --- | --- |
| RRIRRRPPRLPRPRPRPVLTPRP | 0.386 |
| RRIRRRPPRLPRPRPRPHETPRP | 1.07 |
| RRIRYRPPRLPRPRPRPTCAPRP | -0.0853 |
| RRIRWRPPRLPRPRPRPHCDPRP | 0.135 |
| RRIRSRPPRLPRPRPRPDPPPRP | 0.746 |
| RRIRCRPPRLPRPRPRPKVRPRP | 0.195 |
| RRIRDRPPRLPRPRPRPRFDPRP | -0.0584 |
| RRIRQRPPRLPRPRPRPCVWPRP | 0.213 |
| RRIRQRPPRLPRPRPRPEMGPRP | 0.223 |
| RRIRVRPPRLPRPRPRPQEHPRP | -0.251 |
| RRIRIRPPRLPRPRPRPKSLPRP | 0.0615 |
| RRIRWRPPRLPRPRPRPNRTPRP | 0.121 |
| RRIRNRPPRLPRPRPRPLAGPRP | 0.148 |
| RRIRMRPPRLPRPRPRPVVQPRP | -0.0427 |
| RRIRTRPPRLPRPRPRPERAPRP | 0.55 |
| RRIRLRPPRLPRPRPRPKYAPRP | 0.0149 |
| RRIRARPPRLPRPRPRPHQPPRP | -0.115 |
| RRIRKRPPRLPRPRPRPFMYPRP | -0.401 |
| RRIRCRPPRLPRPRPRPVMAPRP | -0.354 |
| RRIRDRPPRLPRPRPRPRCPPRP | 0.131 |
| RRIRCRPPRLPRPRPRPDPYPRP | -0.197 |
| RRIRGRPPRLPRPRPRPQPPPRP | 0.998 |
| RRIRERPPRLPRPRPRPPIYPRP | -0.633 |
| RRIRNRPPRLPRPRPRPSCWPRP | 0.0544 |
| RRIRMRPPRLPRPRPRPFMSPRP | 0.0642 |

| Sequence | shrunken log2 fold change |
| --- | --- |
| RRIRTRPPRLPRPRPRPFMHPRP | -0.547 |
| RRIRTRPPRLPRPRPRPTLIPRP | -0.108 |
| RRIRARPPRLPRPRPRPFAPPRP | 0.61 |
| RRIRYRPPRLPRPRPRPRRQPRP | -0.232 |
| RRIRDRPPRLPRPRPRPKLSPRP | 0.0504 |
| RRIRFRPPRLPRPRPRPYFVPRP | -0.59 |
| RRIRPRPPRLPRPRPRPFEFPRP | 0.0458 |
| RRIRTRPPRLPRPRPRPQDPPRP | 0.167 |
| RRIRWRPPRLPRPRPRPTAQPRP | 0.894 |
| RRIRVRPPRLPRPRPRPPGAPRP | 0.595 |
| RRIRGRPPRLPRPRPRPWEFPRP | -0.0208 |
| RRIRYRPPRLPRPRPRPRMMPRP | 0.0163 |
| RRIRPRPPRLPRPRPRPNICPRP | -0.799 |
| RRIRYRPPRLPRPRPRPTPDPRP | -0.145 |
| RRIRARPPRLPRPRPRPTMNPRP | 0.0878 |
| RRIRERPPRLPRPRPRPSLNPRP | -0.181 |
| RRIRCRPPRLPRPRPRPGIHPRP | -0.405 |
| RRIRDRPPRLPRPRPRPQTHPRP | 0.269 |
| RRIRSRPPRLPRPRPRPTWCPRP | 0.18 |
| RRIRTRPPRLPRPRPRPYAIPRP | -0.000694 |
| RRIRQRPPRLPRPRPRPFRRPRP | 0.0238 |
| RRIRMRPPRLPRPRPRPDKGPRP | -0.0141 |
| RRIRSRPPRLPRPRPRPCHVPRP | -0.0349 |
| RRIRKRPPRLPRPRPRPKMAPRP | 0.169 |
| RRIRFRPPRLPRPRPRPGRAPRP | 0.712 |

| Sequence | shrunken log2 fold change |
| --- | --- |
| RRIRARPPRLPRPRPRPHDKPRP | -0.0542 |
| RRIRKRPPRLPRPRPRPRTKPRP | 1.08 |
| RRIRQRPPRLPRPRPRPCFYPRP | -0.269 |
| RRIRWRPPRLPRPRPRPGAAPRP | 1.06 |
| RRIRDRPPRLPRPRPRPGMMPRP | 0.0672 |
| RRIRSRPPRLPRPRPRPMDDPRP | -0.0393 |
| RRIRSRPPRLPRPRPRPCLIPRP | -0.197 |
| RRIRLRPPRLPRPRPRPYDNPRP | -1.57 |
| RRIRSRPPRLPRPRPRPNQSPRP | -0.0432 |
| RRIRQRPPRLPRPRPRPGMMPRP | -0.0714 |
| RRIRWRPPRLPRPRPRPKMVPRP | 0.295 |
| RRIRARPPRLPRPRPRPSLNPRP | -0.0562 |
| RRIRFRPPRLPRPRPRPAWQPRP | 2.26 |
| RRIRQRPPRLPRPRPRPRYWPRP | -0.0336 |
| RRIRWRPPRLPRPRPRPPLDPRP | 0.57 |
| RRIRVRPPRLPRPRPRPFHQPRP | 0.032 |
| RRIRERPPRLPRPRPRPRHYPRP | -0.462 |
| RRIRGRPPRLPRPRPRPWPEPRP | 0.29 |
| RRIRYRPPRLPRPRPRPVGWPRP | 0.344 |
| RRIRGRPPRLPRPRPRPSRWPRP | 0.489 |
| RRIRQRPPRLPRPRPRPFPDPRP | -0.108 |
| RRIRKRPPRLPRPRPRPWHVPRP | -1.06 |
| RRIRDRPPRLPRPRPRPYPFPRP | -0.671 |
| RRIRSRPPRLPRPRPRPARHPRP | 0.277 |
| RRIRVRPPRLPRPRPRPHERPRP | -0.13 |

— the supplement of paper PMC9112550, “Optimization of the antimicrobial peptide Bac7 by deep mutational scanning” (BMC Biology, 2022)
